Laboratory results from article doi:10.1101/2023.01.07.523125.

Molecular target: human Slack channel (Slo2.2, KCNT1) (human) (UniProt Q5JUK3)
Test: cryo-EM structure

stoichiometry N: 4
Substance: human Slack channel (Slo2.2, KCNT1) (from UniProt Q5JUK3 1-1230) (natural protein)
